Measured values: PMC11264237 (Archives of biochemistry and biophysics, 2024)

Target: T1, GST fused to the ATP8A1 tail (amino acids 1049-1163) (human, UniProt Q9Y2Q0 1049-1163)
T1 sequence (looked up): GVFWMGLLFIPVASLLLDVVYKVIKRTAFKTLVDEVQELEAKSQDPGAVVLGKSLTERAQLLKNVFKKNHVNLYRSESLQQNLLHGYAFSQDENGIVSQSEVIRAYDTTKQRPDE
Test: pull-down

B1: BIG2 (natural protein, human (endogenous in HeLa), UniProt Q9Y6D5 1-1785, looked up)
chain: MQESQTKSMFVSRALEKILADKEVKRPQHSQLRRACQVALDEIKAEIEKQRLGTAAPPKANFIEADKYFLPFELACQSKSPRVVSTSLDCLQKLIAYGHITGNAPDSGAPGKRLIDRIVETICSCFQGPQTDEGVQLQIIKALLTAVTSPHIEIHEGTILQTVRTCYNIYLASKNLINQTTAKATLTQMLNVIFTRMENQVLQEARELEKPIQSKPQSPVIQAAAVSPKFVRLKHSQAQSKPTTPEKTDLTNGEHARSDSGKVSTENGDAPRERGSSLSGTDDGAQEVVKDILEDVVTSAIKEAAEKHGLTEPERVLGELECQECAIPPGVDENSQTNGIADDRQSLSSADNLESDAQGHQVAARFSHVLQKDAFLVFRSLCKLSMKPLGEGPPDPKSHELRSKVVSLQLLLSVLQNAGPVFRTHEMFINAIKQYLCVALSKNGVSSVPDVFELSLAIFLTLLSNFKMHLKMQIEVFFKEIFLNILETSTSSFEHRWMVIQTLTRICADAQCVVDIYVNYDCDLNAANIFERLVNDLSKIAQGRSGHELGMTPLQELSLRKKGLECLVSILKCMVEWSKDLYVNPNHQTSLGQERLTDQEIGDGKGLDMARRCSVTSMESTVSSGTQTTVQDDPEQFEVIKQQKEIIEHGIELFNKKPKRGIQFLQEQGMLGTSVEDIAQFLHQEERLDSTQVGDFLGDSARFNKEVMYAYVDQLDFCEKEFVSALRTFLEGFRLPGEAQKIDRLMEKFAARYIECNQGQTLFASADTAYVLAYSIIMLTTDLHSPQVKNKMTKEQYIKMNRGINDSKDLPEEYLSSIYEEIEGKKIAMKETKELTIATKSTKQNVASEKQRRLLYNLEMEQMAKTAKALMEAVSHAKAPFTSATHLDHVRPMFKLVWTPLLAAYSIGLQNCDDTEVASLCLEGIRCAIRIACIFGMQLERDAYVQALARFSLLTASSSITEMKQKNIDTIKTLITVAHTDGNYLGNSWHEILKCISQLELAQLIGTGVKTRYLSGSGREREGSLKGHTLAGEEFMGLGLGNLVSGGVDKRQMASFQESVGETSSQSVVVAVDRIFTGSTRLDGNAIVDFVRWLCAVSMDELASPHHPRMFSLQKIVEISYYNMNRIRLQWSRIWHVIGDHFNKVGCNPNEDVAIFAVDSLRQLSMKFLEKGELANFRFQKDFLRPFEHIMKKNRSPTIRDMAIRCIAQMVNSQAANIRSGWKNIFAVFHQAASDHDGNIVELAFQTTCHIVTTIFQHHFPAAIDSFQDAVKCLSEFACNAAFPDTSMEAIRLIRFCGKYVSERPRVLQEYTSDDMNVAPGDRVWVRGWFPILFELSCIINRCKLDVRTRGLTVMFEIMKSYGHTFEKHWWQDLFRIVFRIFDNMKLPEQLSEKSEWMTTTCNHALYAICDVFTQFYEALNEVLLSDVFAQLQWCVKQDNEQLARSGTNCLENLVISNGEKFSPEVWDETCNCMLDIFKTTIPHVLLTWRPVGMEEDSSEKHLDVDLDRQSLSSIDKNPSERGQSQLSNPTDDSWKGRPYANQKLFASLLIKCVVQLELIQTIDNIVFYPATSKKEDAEHMVAAQQDTLDADIHIETEDQGMYKYMSSQHLFKLLDCLQESHSFSKAFNSNYEQRTVLWRAGFKGKSKPNLLKQETSSLACCLRILFRMYVDENRRDSWEEIQQRLLTVCSEALAYFITVNSESHREAWTSLLLLLLTKTLKINDEKFKAHASMYYPYLCEIMQFDLIPELRAVLRKFFLRIGVVYKIWIPEEPSQVPAALSPVW
- % of total input bound to the beads: 18.5 % of total input

B2: BIG1 (natural protein, human (endogenous in HeLa), UniProt Q9Y6D6 1-1849, looked up)
chain: MYEGKKTKNMFLTRALEKILADKEVKKAHHSQLRKACEVALEEIKAETEKQSPPHGEAKAGSSTLPPVKSKTNFIEADKYFLPFELACQSKCPRIVSTSLDCLQKLIAYGHLTGNAPDSTTPGKKLIDRIIETICGCFQGPQTDEGVQLQIIKALLTAVTSQHIEIHEGTVLQAVRTCYNIYLASKNLINQTTAKATLTQMLNVIFARMENQALQEAKQMEKERHRQHHHLLQSPVSHHEPESPQLRYLPPQTVDHISQEHEGDLDLHTNDVDKSLQDDTEPENGSDISSAENEQTEADQATAAETLSKNEVLYDGENHDCEEKPQDIVQNIVEEMVNIVVGDMGEGTTINASADGNIGTIEDGSDSENIQANGIPGTPISVAYTPSLPDDRLSVSSNDTQESGNSSGPSPGAKFSHILQKDAFLVFRSLCKLSMKPLSDGPPDPKSHELRSKILSLQLLLSILQNAGPIFRTNEMFINAIKQYLCVALSKNGVSSVPEVFELSLSIFLTLLSNFKTHLKMQIEVFFKEIFLYILETSTSSFDHKWMVIQTLTRICADAQSVVDIYVNYDCDLNAANIFERLVNDLSKIAQGRGSQELGMSNVQELSLRKKGLECLVSILKCMVEWSKDQYVNPNSQTTLGQEKPSEQEMSEIKHPETINRYGSLNSLESTSSSGIGSYSTQMSGTDNPEQFEVLKQQKEIIEQGIDLFNKKPKRGIQYLQEQGMLGTTPEDIAQFLHQEERLDSTQVGEFLGDNDKFNKEVMYAYVDQHDFSGKDFVSALRMFLEGFRLPGEAQKIDRLMEKFAARYLECNQGQTLFASADTAYVLAYSIIMLTTDLHSPQVKNKMTKEQYIKMNRGINDSKDLPEEYLSAIYNEIAGKKISMKETKELTIPTKSSKQNVASEKQRRLLYNLEMEQMAKTAKALMEAVSHVQAPFTSATHLEHVRPMFKLAWTPFLAAFSVGLQDCDDTEVASLCLEGIRCAIRIACIFSIQLERDAYVQALARFTLLTVSSGITEMKQKNIDTIKTLITVAHTDGNYLGNSWHEILKCISQLELAQLIGTGVKPRYISGTVRGREGSLTGTKDQAPDEFVGLGLVGGNVDWKQIASIQESIGETSSQSVVVAVDRIFTGSTRLDGNAIVDFVRWLCAVSMDELLSTTHPRMFSLQKIVEISYYNMGRIRLQWSRIWEVIGDHFNKVGCNPNEDVAIFAVDSLRQLSMKFLEKGELANFRFQKDFLRPFEHIMKRNRSPTIRDMVVRCIAQMVNSQAANIRSGWKNIFSVFHLAASDQDESIVELAFQTTGHIVTLVFEKHFPATIDSFQDAVKCLSEFACNAAFPDTSMEAIRLIRHCAKYVSDRPQAFKEYTSDDMNVAPEDRVWVRGWFPILFELSCIINRCKLDVRTRGLTVMFEIMKTYGHTYEKHWWQDLFRIVFRIFDNMKLPEQQTEKAEWMTTTCNHALYAICDVFTQYLEVLSDVLLDDIFAQLYWCVQQDNEQLARSGTNCLENVVILNGEKFTLEIWDKTCNCTLDIFKTTIPHALLTWRPNSGETAPPPPSPVSEKPLDTISQKSVDIHDSIQPRSVDNRPQAPLVSASAVNEEVSKIKSTAKFPEQKLFAALLIKCVVQLELIQTIDNIVFFPATSKKEDAENLAAAQRDAVDFDVRVDTQDQGMYRFLTSQQLFKLLDCLLESHRFAKAFNSNNEQRTALWKAGFKGKSKPNLLKQETSSLACGLRILFRMYMDESRVSAWEEVQQRLLNVCSEALSYFLTLTSESHREAWTNLLLLFLTKVLKISDNRFKAHASFYYPLLCEIMQFDLIPELRAVLRRFFLRIGVVFQISQPPEQELGINKQ
- % of total input bound to the beads: 24 % of total input
